This data set deals with the molecule itself. Description: crystal structure.

B1: Sulfolobus solfataricus MCM protein N-terminal domain (residues 1–268) (domain or fragment, UniProt Q9UXG1 1-268, looked up)
chain: MEIPSKQIDYRDVFIEFLTTFKGNNNQNKYIERINELVAYRKKSLIIEFSDVLSFNENLAYEIINNTKIILPILEGALYDHILQLDPTYQRDIEKVHVRIVGIPRVIELRKIRSTDIGKLITIDGILVKVTPVKERIYKATYKHIHPDCMQEFEWPEDEEMPEVLEMPTICPKCGKPGQFRLIPEKTKLIDWQKAVIQERPEEVPSGQLPRQLEIILEDDLVDSARPGDRVKVTGILDIKQDSPVKRGSRAVFDIYMKVSSIEVSQKV
What is called stoichiometry N is a count of units in the complex or per binding partner. With B1, the “stoichiometry N” value came out at 6.

Values taken from article PMC2425480 (Nucleic Acids Research, 2008).
